# Reference: US20050065076
# Test system: C100Flag recombinant protein (Met + APP695 C-terminal fragment + Flag)
# Sequence (chain, as listed by the source): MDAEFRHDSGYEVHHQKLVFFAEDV
substance,measurement,value
γ3 protease in a membrane preparation from HeLa S3 cells,"γ-secretase activity (cleavage of the substrate, Aβ products detected by ECL)",significant γ-secretase activity remains at pH 6.0 (the pH optimum for γ-secretase activity associated with γ3 protease)
